B1: CyaR (structured_RNA)
RNA: GCUGAAAAACAUAACCCAUAAAAUGCUAGCUGUACCAGGAACCACCUCCUUAGCCUGUGUAAUCUCCCUUACACGGGCUUAUUUUUU
B2: 3'ETSleuZ (structured_RNA)
RNA: GGGAAAGAUAAGAAUAAAAUCAAAGCAAUAAGCAGUGUCGUGAAACCACCUUCGGGUGGUUUUUUU

How the values were obtained:
PNPase WT;Hfq [1] = molecular target: T1, PNPase WT;Hfq (Escherichia coli;Escherichia coli, UniProt P05055;P0A6X3 1-711;1-102, |); assay: cryo-EM; two stacked Hfq hexamers; EMSA: 0.4 uM RNA, PNPase trimer 1:1 and 3:1 over RNA, 20 mM Tris pH 7.5, 100 mM NaCl, 1 mM MgCl2, 1 mM DTT, 30 C 20 min; native PAA gel with 10% glycerol, Tris-glycine pH 8.5; settings: protein: recombinant;recombinant; tags: ;; chain copies: 3;12; single strand
PNPase WT;Hfq [2] = molecular target: T1, PNPase WT;Hfq; assay: cryo-EM; carrier complex; 50 RNA nt modelled; EMSA: 0.4 uM RNA, PNPase trimer 1:1 and 3:1 over RNA, 20 mM Tris pH 7.5, 100 mM NaCl, 1 mM MgCl2, 1 mM DTT, 30 C 20 min; native PAA gel with 10% glycerol, Tris-glycine pH 8.5; settings: protein: recombinant;recombinant; tags: ;; chain copies: 3;6; single strand with hairpin
PNPase WT = molecular target: T2, PNPase WT (Escherichia coli, UniProt P05055 1-711); assay: cryo-EM; phosphorolytic mode; 8 RNA nt modelled; EMSA: 0.4 uM RNA, PNPase trimer 1:1 and 3:1 over RNA, 20 mM Tris pH 7.5, 100 mM NaCl, 1 mM MgCl2, 1 mM DTT, 30 C 20 min; native PAA gel with 10% glycerol, Tris-glycine pH 8.5; settings: protein: recombinant; chain copies: 3; single strand with hairpin
T2 sequence: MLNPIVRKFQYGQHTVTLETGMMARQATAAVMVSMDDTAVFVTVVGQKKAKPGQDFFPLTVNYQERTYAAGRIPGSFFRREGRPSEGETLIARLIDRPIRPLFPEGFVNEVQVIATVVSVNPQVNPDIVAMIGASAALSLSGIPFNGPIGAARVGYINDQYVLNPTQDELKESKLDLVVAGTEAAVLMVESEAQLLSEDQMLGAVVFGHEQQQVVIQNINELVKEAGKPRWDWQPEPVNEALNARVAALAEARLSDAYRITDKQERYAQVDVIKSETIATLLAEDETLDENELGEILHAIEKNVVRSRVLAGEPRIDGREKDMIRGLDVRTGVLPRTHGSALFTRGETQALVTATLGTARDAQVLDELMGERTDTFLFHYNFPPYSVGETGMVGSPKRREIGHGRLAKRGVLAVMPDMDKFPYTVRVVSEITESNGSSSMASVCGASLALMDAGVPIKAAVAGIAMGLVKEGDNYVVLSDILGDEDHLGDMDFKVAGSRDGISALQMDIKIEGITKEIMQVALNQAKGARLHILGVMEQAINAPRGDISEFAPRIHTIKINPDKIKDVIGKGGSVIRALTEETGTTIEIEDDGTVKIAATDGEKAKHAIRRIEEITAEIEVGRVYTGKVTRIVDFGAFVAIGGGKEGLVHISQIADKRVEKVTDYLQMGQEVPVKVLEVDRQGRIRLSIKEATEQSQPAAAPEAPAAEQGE

Binder	binding result (PNPase WT;Hfq [1])	binding result (PNPase WT;Hfq [2])	binding result (PNPase WT)
B1	binds	–	–
B2	–	binds	binds

From PMC8294330, “A cooperative PNPase-Hfq-RNA carrier complex facilitates bacterial riboregulation”
